# Measurements reported in the supplement of paper PMC10724198.
# ± gives the standard deviation of the averaged measurements.
# Tested on: Saccharomyces cerevisiae
# Experiment: protein stability index of tFT-peptide fusion (C-terminal peptide) (PSI (0-1 scale)); higher = more stable (slower turnover)
# Settings: genetic background: wild type; temperature: 30 C
# Method: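 Multiplexed protein stability (MPS) profiling in S. cerevisiae. Random 12-aa peptides (tFT-X12 library) are fused to the C-terminus of a sfGFP-mCherry tandem fluorescent timer, after mCherry and a GGGS linker. Cells are FACS-sorted into 8 mCherry/sfGFP bins and deep-sequenced. The protein stability index (PSI) is the read-weighted bin average, scaled from 0 (unstable) to 1 (stable). Only peptides with >10 reads are reported; cells were grown at 30 °C in SC-His with glucose.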
# 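Note: PSI is a weighted mean of sequencing reads over stability bins, variants kept only with over 10 reads, mCherry proximal and sfGFP distal, peptide attached via GGGS linker.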
row,Sequence,protein stability index
1,ETKFLVDRKTDI,0.67 ± 0.012
2,ETQEAKGGMTRQ,0.667 ± 0.0091
3,ETSERIEDKDGI,0.698 ± 0.051
4,EVFGAGRNDPGS,0.689 ± 0.018
5,EVGLSVLLPGGG,0.675 ± 0.022
6,EVIRGNEGGKER,0.708 ± 0.018
7,EVPLGLIRLPSV,0.695 ± 0.06
8,EVTEVCTIKVHV,0.577 ± 0.0097
9,EVTVSGEEQRAG,0.6881 ± 0.0044
10,EVVGILSSVNIA,0.647 ± 0.03
11,EVWMGIRSLSVV,0.634 ± 0.096
12,EWCAVYDQGNRF,0.818 ± 0.11
13,EWGWGRIVNGRE,0.6869 ± 0.0032
14,EWNKMTKEKNVI,0.686 ± 0.017
15,EWNWRSVYGFGE,0.748 ± 0.027
16,EYTRGIRKTRRA,0.608 ± 0.051
17,FACLGPLRRRLG,0.682 ± 0.012
18,FAECVCVVCPLV,0.6319 ± 0.0053
19,FAFLPYKGISSS,0.682 ± 0.05
20,FALERLWFMSVG,0.67 ± 0.031
21,FALPPPPHLNPP,0.6248 ± 0.0021
22,FAPFVPGPSIKY,0.705 ± 0.074
23,FCCTPAPVPPST,0.689 ± 0.016
24,FCEASSSSRISA,0.744 ± 0.088
25,FCFFLLGLFCNL,0.6 ± 0.062
26,FCFLSALTCLCA,0.589 ± 0.021

row,Sequence,protein stability index
1,FCGFLFRLSSVL,0.626 ± 0.025
2,FCGLWGVGGVAE,0.704 ± 0.025
3,FCLAPMLLPGSF,0.6785 ± 0.0064
4,FCPSLFLNPHSC,0.6739 ± 0.00084
5,FCSDRPWGPCRR,0.579 ± 0.08
6,FCSSSSFMCFVQ,0.629 ± 0.0082
7,FDAWTHAGMYNW,0.757 ± 0.058
8,FDPSFLSVCRSK,0.72 ± 0.021
9,FDRQQDLTGMEM,0.769 ± 0.078
10,FERVLVFENRKY,0.728 ± 0.051
11,FESYLRLGLGGR,0.667 ± 0.09
12,FEVSGYRNGRAL,0.694 ± 0.0074
13,FFDSPHCRYACV,0.744 ± 0.009
14,FFFYFPSLNSFV,0.696 ± 0.073
15,FFPLRLLPLVPR,0.645 ± 0.0063
16,FFPPPPPATPPA,0.663 ± 0.072
17,FFSFTTPHLSFA,0.688 ± 0.054
18,FFSISPLLPLPF,0.714 ± 0.2
19,FFSLVHVLFYGF,0.54037 ± 0.00016
20,FFTFTMSIPRWL,0.617 ± 0.055
21,FFVCCGTRLIGL,0.716 ± 0.04
22,FFVRVVGDLRWE,0.583 ± 0.019
23,FFWGRFCLGLWS,0.568 ± 0.067
24,FFWGVFFLGLGW,0.566 ± 0.071
25,FGCLFFSPLSIH,0.745 ± 0.043
26,FGCSRRERKGRG,0.826 ± 0.016

row,Sequence,protein stability index
1,FGDRGLGIIYFK,0.7277 ± 0.0023
2,FGFYTYFRPGLG,0.698 ± 0.017
3,FGGGGRGGLLWC,0.764 ± 0.06
4,FGGGSWSMRWSW,0.639 ± 0.024
5,FGGGWGGGVVLV,0.691 ± 0.0086
6,FGGNISIPRSCD,0.7233 ± 0.004
7,FGLWSSCGWWWT,0.64 ± 0.041
8,FGNFCCRWSLGP,0.66 ± 0.12
9,FGPAQGYCLVGA,0.544 ± 0.025
10,FGRDTDIYLASL,0.691 ± 0.037
11,FGSLCPRAHSLV,0.71 ± 0.011
12,FGSLMFCLLPLH,0.6527 ± 0.0026
13,FGSRYLGVVSGC,0.656 ± 0.037
14,FGVGWGDGFFGV,0.716 ± 0.059
15,FHGSIVQLTFRA,0.603 ± 0.047
16,FHVFTRTVGSVL,0.643 ± 0.075
17,FIHVPAYGNVCV,0.611 ± 0.058
18,FISPLNFPARPS,0.7181 ± 0.0015
19,FIWRFYSLPLGC,0.623 ± 0.069
20,FLASPHPPGLSP,0.693 ± 0.033
21,FLCILTNGCCYQ,0.765 ± 0.052
22,FLFASSGFLGRF,0.67 ± 0.036
23,FLFGLGEIDGVR,0.84 ± 0.034
24,FLFPTLSPITGC,0.612 ± 0.05
25,FLLNPPSLPCYY,0.727 ± 0.034
26,FLLPAGLWSSCC,0.66 ± 0.043

row,Sequence,protein stability index
1,FLLSFPCAHFLL,0.598 ± 0.056
2,FLLSILPFISFC,0.527 ± 0.1
3,FLLVLVPFCALF,0.547 ± 0.11
4,FLNLPLSAFVLL,0.583 ± 0.062
5,FLPHSPSLPQLP,0.67 ± 0.013
6,FLPPPLAAPFLF,0.669 ± 0.059
7,FLQAKSQGEHFR,0.694 ± 0.012
8,FLRGSSKSISAR,0.677 ± 0.061
9,FLSAGLSILAAP,0.683 ± 0.043
10,FLSFECRFPFQW,0.795 ± 0.069
11,FLSFRLCTAAPV,0.559 ± 0.031
12,FLSLGVIARYFL,0.6325 ± 0.0042
13,FLSPPSPWPSFP,0.688 ± 0.059
14,FLSSPPPPLRVP,0.694 ± 0.054
15,FLTPPIPLFSRL,0.783 ± 0.058
16,FLTPPSLSLPPP,0.68 ± 0.0084
17,FMDLVRSVPTGC,0.706 ± 0.046
18,FMFFMGLFVGGW,0.5401 ± 0.0026
19,FMSRDPKDDTET,0.685 ± 0.076
20,FMYSGIVAIPRG,0.661 ± 0.025
21,FNCIFHMLRFLR,0.656 ± 0.074
22,FPCIPAAPPIFL,0.71 ± 0.015
23,FPFFSSIPPRVV,0.574 ± 0.069
24,FPFLPPRSVSPP,0.696 ± 0.12
25,FPGGGARAGVGV,0.724 ± 0.025
26,FPGVRNGSRFPP,0.637 ± 0.0067

row,Sequence,protein stability index
1,FPLLAPAVSPHT,0.662 ± 0.071
2,FPPFPPLVPSPP,0.742 ± 0.0049
3,FPPIDLPPPSPS,0.687 ± 0.027
4,FPPLFPLSTFLL,0.56 ± 0.04
5,FPPLPPPPPPLN,0.743 ± 0.065
6,FPPPPFFFIPLP,0.724 ± 0.048
7,FPPRPPPSPSAH,0.675 ± 0.027
8,FPPTGPPYFPPT,0.615 ± 0.062
9,FPPYHTSSGFDA,0.733 ± 0.066
10,FPSLPSPSPSSH,0.684 ± 0.031
11,FPTFSPRPHPLS,0.72 ± 0.0098
12,FPTSPPLIALLD,0.6692 ± 0.0029
13,FPVSLSSVRMFV,0.6254 ± 0.0032
14,FPWPDLPSLLPQ,0.8 ± 0.14
15,FQMLPLGHQFPQ,0.736 ± 0.0087
16,FRAAGFLAGRYR,0.738 ± 0.039
17,FRDEGYCFADLV,0.71 ± 0.094
18,FRFLFSPSRPPF,0.633 ± 0.05
19,FRFTSSPVFSWL,0.708 ± 0.014
20,FRLGIKFYTLAV,0.514 ± 0.01
21,FRLGTMYDILPL,0.69 ± 0.023
22,FRLPPRPPLTIP,0.6726 ± 0.0062
23,FRLQSLFPYVVK,0.604 ± 0.047
24,FRSHGHLSQNSY,0.679 ± 0.044
25,FSASLLWFKEFW,0.685 ± 0.024
26,FSASLPLSPSPA,0.6784 ± 0.002

row,Sequence,protein stability index
1,FSGGGRGLVGEV,0.7 ± 0.039
2,FSGLFAFGRVVV,0.687 ± 0.056
3,FSGLSPPRPEFV,0.708 ± 0.0089
4,FSIRALGSLGVF,0.693 ± 0.027
5,FSLLPFFRHIFL,0.637 ± 0.025
6,FSLPRHFRLYRR,0.713 ± 0.036
7,FSLPSLLPDPPS,0.579 ± 0.011
8,FSPHTPPRRLPL,0.721 ± 0.066
9,FSPLTFLLSFPL,0.679 ± 0.019
10,FSPSPPPPPFPL,0.659 ± 0.024
11,FSSLLLMEVFLP,0.686 ± 0.011
12,FSVGGLVDGRLW,0.79 ± 0.026
13,FSVPPLPLPPRL,0.757 ± 0.095
14,FSVSSSLSSFRA,0.717 ± 0.03
15,FTSGNSWLAVFL,0.731 ± 0.027
16,FVFSGLSGDFRG,0.649 ± 0.054
17,FVFSIPPPPRPL,0.59 ± 0.15
18,FVLARLTYSILI,0.482 ± 0.047
19,FVLLGVRGGAGW,0.698 ± 0.021
20,FVRWCFGRRVLG,0.619 ± 0.0027
21,FVVGGGALGCYA,0.661 ± 0.019
22,FVVSSLYSYSYR,0.56 ± 0.015
23,FVWAGVGCWSEA,0.723 ± 0.023
24,FVWSGVGGSGVG,0.679 ± 0.028
25,FWERWDLFCGLC,0.702 ± 0.1
